Results on one substance are retold here after PMC6982540.

This assay deals with His-PTP1B (residues 1–321), reversibly oxidized and phosphorylated on Ser50 (UniProt P18031). The assay can be described thus: SPR.
Chain of UniProt P18031 (P18031 1-321): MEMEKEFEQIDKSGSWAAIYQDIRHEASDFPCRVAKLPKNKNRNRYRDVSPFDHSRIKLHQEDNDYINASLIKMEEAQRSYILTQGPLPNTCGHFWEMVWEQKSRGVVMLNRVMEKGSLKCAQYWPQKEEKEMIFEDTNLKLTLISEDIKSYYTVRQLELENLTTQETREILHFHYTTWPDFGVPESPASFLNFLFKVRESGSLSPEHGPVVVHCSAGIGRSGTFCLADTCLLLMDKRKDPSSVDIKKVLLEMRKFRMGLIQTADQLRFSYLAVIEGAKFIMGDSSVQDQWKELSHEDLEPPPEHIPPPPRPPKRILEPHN

A word on the koff: it is the rate constant with which the complex falls apart. Read a low koff as a long-lived complex. Substance “GST-14-3-3-ζ (from UniProt P63104 1-245) (natural protein)” came in with a dissociation rate constant (koff) of 0.00458 s⁻¹.
